Experimental data: paper PMC3081348, “Kaposi's Sarcoma-Associated Herpesvirus-Encoded LANA Down-Regulates IL-22R1 Expression through a Cis-Acting Element within the Promoter Region”

How the values were obtained:
[1] = target: T1, LANA-C (C-terminus of LANA) (Kaposi's sarcoma-associated herpesvirus …, UniProt Q9QR71 918-1129); assay: EMSA; 4 mM Mg2+, poly(dI-dC); affinity similar to LBS1; EMSA: 20 mM Tris/HCl pH 7.4, 100 mM NaCl, 4 mM MgCl2, 0.25 mM EDTA, 1 mM DTT, 0.5 ug poly(dI-dC), 10% glycerol, 100 ng labeled oligo, 0-400 ng LANA-C, 20 min at room temperature; 6.5% native PAGE on ice; details: protein: recombinant; tags: His; chain copies: 2; annealed sense and antisense oligos
[2] = target: T1, LANA-C (C-terminus of LANA); assay: EMSA; 4 mM Mg2+, poly(dI-dC); EMSA: 20 mM Tris/HCl pH 7.4, 100 mM NaCl, 4 mM MgCl2, 0.25 mM EDTA, 1 mM DTT, 0.5 ug poly(dI-dC), 10% glycerol, 100 ng labeled oligo, 0-400 ng LANA-C, 20 min at room temperature; 6.5% native PAGE on ice; details: protein: recombinant, tags: His, chain copies: 2, annealed sense and antisense oligos

T1 sequence (Q9QR71 918-1129): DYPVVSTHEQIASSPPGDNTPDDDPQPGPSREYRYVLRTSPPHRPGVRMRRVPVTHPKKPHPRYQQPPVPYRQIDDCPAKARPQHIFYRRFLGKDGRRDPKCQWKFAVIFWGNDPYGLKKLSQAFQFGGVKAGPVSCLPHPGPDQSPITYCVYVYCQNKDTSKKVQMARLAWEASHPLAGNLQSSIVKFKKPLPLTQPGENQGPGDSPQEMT

B1: LBS-like (IL-22R1 promoter -69 to -34) (dsDNA)
DNA 1: TCCCCGCCCCATGCCCGGGTGGAGCCAGCTGCCAG
DNA 2: CTGGCAGCTGGCTCCACCCGGGCATGGGGCGGGGA
binding result [1]: binds

B2: LBS (37 bp, TR DNA LBS1) (dsDNA)
DNA 1: GCGGAATTCGGCCCCATGCCCGGGCGGGAGGCGGGAT
DNA 2: ATCCCGCCTCCCGCCCGGGCATGGGGCCGAATTCCGC
binding result ([2]; label: 5'-biotin): binds

B3: mLBS-like (scrambled LBS-like) (dsDNA)
DNA 1: TCCCCACCGGCTCCGCGCGTGGAGCCAGCTGCCAG
DNA 2: CTGGCAGCTGGCTCCACGCGCGGAGCCGGTGGGGA
binding result [2]: no binding
